Several values for one entry are separate records, joined by “and”; a condition that tells them apart may be missing. Equal entries are not always repeated.

The target in test [1] is T1, MS4A6A ECL1 peptide (human).
T1 construct: the description elsewhere gives ECL1 as 68-84; Human and cyno ECL1 are said to be identical
T1 peptide: SASFSPNFTQVTSTLLNS
Nature of the test: peptide ELISA, hybridoma supernatant. As to the method: (§1) Anti-MS4A6A hybridoma supernatants were tested for binding to MS4A6A peptides derived from ECL1 (amino acid residues 68-85 of human MS4A6A of SEQ ID NO:1) and ECL2 (amino acid residues 138-185 of human MS4A6A of SEQ ID NO:1) sequences, using an enzyme-linked immunosorbent assay (ELISA). Briefly, 96-well polystyrene plates were coated with 1-10 μg/mL of synthetic free or BSA-conjugated peptides in coating buffer (0.05M carbonate buffer, pH9.6, Millipore Sigma C3041) overnight at 4° C. Coated plates were then blocked with ELISA diluent (PBS+0.5% BSA+0.05% Tween20) for 1-hour, washed 3×300 μL in PBST (PBS+0.05% Tween20, Thermo 28352), and then the antibodies were added at various dilutions (100-1000×) in ELISA diluent. After 30 mins incubation (room temperature, with shaking), the plates were washed 3×300 μl in PBST. A secondary anti-mouse HRP antibody (Jackson Immunoresearch CAT #115-035-003) was added at a 1:1000 dilution in ELISA diluent (50 μL/well) and incubated for 30 minutes at room temperature with shaking. After a final set of washes (3×300 μl in PBST), 50 μL of TMB substrate (BioFx TMBW-1000-01) was added and the reaction was then quenched after 5-10 mins with 50 μL of stop solution (BioFx BSTP-1000-01). The quenched reaction wells were detected for absorbance at […] with a BioTek Synergy Microplate Reader using GENS 2.04 software.
In general terms: An ELISA detects its analyte on a solid surface through an enzyme-linked reagent.

Test [2] concerns the target T2, BSA-MS4A6A-ECL2 peptide (human, BSA-conjugated).
T2 construct: Synthetic peptide derived from ECL2, conjugated to BSA, coated on the ELISA plate; also called MS4A6A-ECL2 BSA conjugated peptide; BSA-MS4A6A-ELC2 peptide
T2 peptide: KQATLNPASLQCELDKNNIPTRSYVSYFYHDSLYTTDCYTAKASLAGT
Nature of the test: peptide ELISA, hybridoma supernatant. As to the method: as §1

For test [3], the target named is T3, MS4A6A ECL2 peptide (human).
T3 construct: also called MS4A6A ECL-2 peptides
T3 peptide: T2 peptide
Nature of the test: array SPR (Carterra MX-96), antibody captured, peptide injected; both duplicates N/A. As to the method: (§2) Binding kinetic characterization of the purified antibodies to MS4A6A ECL1 and ECL2 peptides was performed by Carterra (South San Francisco, Calif.) using a proprietary array Surface Plasmon Resonance (SPR) instrument (MX-96) as follows. Antibodies were printed onto a CMD5OOD chip (Xantec #SPMX CMD500D lot #SC CMD500D0117.a Exp. 31.12.18) using the Continuous Flow Microspotter (CFM). First, the chip was activated with 100 mM MES pH 5.5, 100 μL EDC (133 mM final), 100 μL of S-NHS (33.3 mM final), for 7 minutes. A lawn of anti-mouse IgG-Fc (Jackson ImmunoResearch CAT #115-005-071 lot#130410) was injected for 15 minutes to establish a surface density of 10000-12000 RU, after which the chip surface was deactivated with 1 M ethanolamine at pH 8.5 for 10 minutes. Anti-MS4A6A antibodies in question, in the form of hybridoma supernatants diluted 2:1 with HBS-EP+buffer (Teknova CAT #H8022), were then printed as duplicates with a 20 minute and a 5 minutes print from the same sample solution. Control antibodies were diluted to 20 μ/ml for printing.
(§3) To perform kinetic analysis, the peptides in question were prepared in HBS-EP+buffer with lmg/ml BSA at final assay concentrations of 2000 nM, 400 nM, 80 nM, 16 nmM, and 3.2 nM. These were then injected on the chip for five minutes, followed by a seven-minute dissociation period at 8 uL per second in a non-regenerative kinetic series. Duplicate measurements for each anti-MS4A6A antibody were taken to ensure reproducibility.
(§4) Kₐ (association rate constant; Kₒₙ), Kd (dissociation rate constant; Koff) and KD (equilibrium constant) to MS4A6A ECL-2 peptides were calculated for each of the 23 anti-MS4A6A antibodies tested, the results of which are shown below in Table 5 (clones that bound too weakly to determine these values are denoted as N/A in Table 5).

Test [4] concerns the target T4, cynomolgus (cyno) MS4A6A (cynomolgus, UniProt Q9H2W1 1-246 (human entry)).
T4 construct: Full-length protein expressed in transfected HEK293, U937 or K562 cells (flow cytometry)
T4 chain: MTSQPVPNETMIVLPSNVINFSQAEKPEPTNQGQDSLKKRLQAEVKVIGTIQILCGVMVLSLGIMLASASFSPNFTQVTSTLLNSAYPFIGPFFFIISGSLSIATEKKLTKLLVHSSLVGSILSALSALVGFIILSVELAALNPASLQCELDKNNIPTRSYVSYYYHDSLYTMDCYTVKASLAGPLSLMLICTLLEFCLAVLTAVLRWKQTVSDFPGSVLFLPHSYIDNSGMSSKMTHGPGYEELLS
The experiment in a line: flow cytometry, hybridoma supernatant, HEK293 transfected with cyno MS4A6A over parental HEK293; Screen 1. The method, then:
(§5) Positive clones were expanded and then rescreened for specificity against HEK293 cells overexpressing cyno MS4A6A and parental HEK293 cells. Briefly, previously prepared, cryopreserved transiently-transfected cells were labeled with LIVE/DEAD Fixable Aqua Dead Cell Stain Kit (ThermoFisher Scientific L34957) on ice for 30 minutes. After a wash with PBS, 2×10⁵ cells were aliquoted per well in 96-well round bottom plates and incubated with 50 μl of culture supernatant on ice for 30 mins. […] Following this secondary incubation, the cells were again washed twice with ice-cold FACS buffer and resuspended in a final volume of 200 μl of FACS buffer. Analysis was performed on a FACS Canto system (BD Biosciences), with sort gates drawn to exclude dead (Aqua-positive) cells. […] The screen was repeated twice, and the numbers reported here represent the ratio of mean fluorescence level in transfected cells over parental cells.
(In general: In flow cytometry, cells or beads pass a laser one at a time.)

Test [5] has as its target T4, cynomolgus (cyno) MS4A6A. The experiment in a line: flow cytometry, hybridoma supernatant, HEK293 transfected with cyno MS4A6A over parental HEK293; Screen 2. The method, then:
as §5

In test [6] the target is T3, MS4A6A ECL2 peptide. Nature of the test: array SPR (Carterra MX-96), antibody captured on anti-mouse IgG-Fc, ECL2 peptide injected. As to the method:
as §2, §3, §4

B1: 6A-20 (antibody, V domains shown)
VH: EVQLQQSGPELVKPGASVKMSCKASGYTFTDYFMKWVKQSHGKSLEWIGDINPKNGDTFYNQKFKGKATLTVDKSSSTAYMQLNSLTSEDSAVYYCARPGYFDVWGAGTTVTVSS
VL: DIVMTQAAPSVPVTPGESVSISCRSSKSLLHSDGNTYLYWFLQRPGQSPQLLIYRMSNLAPGVPDRFSGSGSGTAFTLRISRVEAEDVGVYYCMQHLEFPFIFGAGTKLELK
notes: Mouse hybridoma antibody (SJL mouse), tested as hybridoma supernatant (mouse IgG, detected or captured via anti-mouse IgG Fc); also called anti-MS4A6A antibody 6A-20
As to B1, the binding result in test [1] was “no binding”; in test [2] it was “no binding”; in test [3], “no binding (tested: 2000 nM)”.

B2: 6A-4 (antibody, V domains shown)
VH: EVQLQQSGPELVKPGASVKISCKASGYSFTGYYMHWVKQSPEDSLEWIGAINPSTGGSTYSQKFKDKATLTVDKSSSTAYMQLKSLTSEESAVYYCTRFDGYGYWGQGTLVTVSA
VL: DIVMTQAAFSNPVTLGTSASISCRSSKSLLHSNGITYLYWYLQKPGQSLQLLIYQMSNLASGVPDRFSGSGSGTDFTLRISRVEAEDVGVYYCAQNLELPWTFGGGTKLEIK
notes: Mouse hybridoma antibody, tested as hybridoma supernatant (mouse IgG, detected or captured via anti-mouse IgG Fc); also called anti-MS4A6A antibody 6A-4
Turning to B2, the values for the binding result in test [1], in test [2] and in test [3] were “no binding”, “no binding” and “no binding (tested: 2000 nM)”, respectively. Moreover, the “ratio of APC MFI on MS4A6A+/HEK parental cells” value (shortened to “ratio of APC MFI”) in test [4] turned out to be 5.4 ratio; in test [5] it was 16.2 ratio.

B3: 6A-6 (antibody, V domains shown)
VH: QIQLVQSGPELKKPGESVKISCKASGYTFANYGMNWVKLAPGKGLKWMGYINIYSGKSRYADDFKGRFAFSLETSASTAYLQINNLKNEDMATYFCARDNDYFDYWGQGTTLTVSS
VL: DIVLTQSPATLSVTPGDTVSLSCRASQSISDNLHWYQQKSHESPGLLIKYASQSISGIPSRFSGRGSGTDFTLSINSVDSEDFGVYFCQQSNSWPYTFGGGTKLEIK
notes: Mouse hybridoma antibody, tested as hybridoma supernatant (mouse IgG, detected or captured via anti-mouse IgG Fc); also called anti-MS4A6A antibody 6A-6
Consider B3, for which the binding result is “no binding” in test [1] and “binds” in test [2]. Besides, the “ratio of APC MFI” value was 13.5 ratio in test [4] and 62.1 ratio in test [5].

B4: 6A-8 (antibody, V domains shown)
VH: QVQLQQSGAELARPGTSVKLSCKASGYTFTDYYINWVKQRNGQGLEWIGEIYPRSGNAYYNEKFRGKATLTTDKSSSTAYMQLSGLTSEDSAVYFCARGDGNWYFDVWGAGTTVIVSS
VL: DIVMTQSPSSLSVSAGEKVTMSCKSSQSLLNSGDQENYLVWYQQKPGQPPKLLIYGASTRESGVPDRFTGSGSGTDFTLTISSVLAEDLAVYYCQSDHSYPLTFGAGTKLELK
notes: Mouse hybridoma antibody, tested as hybridoma supernatant (mouse IgG, detected or captured via anti-mouse IgG Fc); also called anti-MS4A6A antibody 6A-8
As for B4, the binding result in test [1] is reported as “no binding”. Besides, in test [6], binding was characterised by a dissociation constant (Kd) of 170 nM, the koff (usually the first-order rate constant of dissociation) amounted to 0.001 s⁻¹ and the kon (commonly a measure of how fast the partners come together) was found to be 6300 M⁻¹ s⁻¹. Besides, the “ratio of APC MFI” value in test [4] was determined as 26.7 ratio. Besides, in test [5], the “ratio of APC MFI” value was determined as 69.5 ratio.

B5: 6A-10 (antibody, V domains shown)
VH: QIQLVQSGPELKKPGETVKISCKASGYTFTNYGMNWVKQAPGKGLKWMGWINTYTGEPTYADDFKGRFAFSLETSASTAYLQINNLKNEDMATYFCARAYGNSAWFAYWGQGTLVTVSA
VL: QIVLSQSPAILSASPGEKVTMTCRASSSVSYMHWYQQKPGSSPKPWIYATSNLASGVPARFSGSGSGTSYSLTISRVEAEDAATYYCQQWSSNPWTFGGGTKLEIK
notes: Mouse hybridoma antibody, tested as hybridoma supernatant (mouse IgG, detected or captured via anti-mouse IgG Fc); also called anti-MS4A6A antibody 6A-10
For B5, in test [1], the binding result is given as “no binding”. For the same molecule, in test [6], the Kd (usually the equilibrium constant for the complex coming apart) is 190 nM, the koff turned out to be 0.0013 s⁻¹ and the kon turned out to be 6600 M⁻¹ s⁻¹. Further, in test [4], the “ratio of APC MFI” value is 18 ratio. In addition, in test [5], the “ratio of APC MFI” value is 95.2 ratio.

B6: 6A-23 (antibody, V domains shown)
VH: EVNLEESGGDLVQPGGSMKLSCLASGFTFSDAWMDWVRQSPEKGLEWVAEIKNKANNYVTFYAASVKGRFTISRDDSKSSVYLQMNSLRLEDTGIYFCTRGSVYGNWFPYWGQGTLVTVSA
VL: DIVMSQSPSSLAVSAGEKVTMTCKSSQSLFNSRTRKNYLTWYQQKPGQSPKVLIYWASTRESGVPDRFTGSGSGTDFSLTINSVQADDLAVYYCKQSYNLLTFGAGTKLELK
notes: Mouse hybridoma antibody, tested as hybridoma supernatant (mouse IgG, detected or captured via anti-mouse IgG Fc); also called anti-MS4A6A antibody 6A-23
As to B6, the binding result in test [1] is recorded as “no binding”. For the same molecule, in test [6], the Kd was 120 nM and 150 nM; the koff was 0.00065 s⁻¹ and 0.0008 s⁻¹; the kon is 5400 M⁻¹ s⁻¹ and 5500 M⁻¹ s⁻¹. The “ratio of APC MFI” value in test [4] is 156 ratio. In addition, the “ratio of APC MFI” value in test [5] amounted to 82 ratio.

For the origin of these results see US20220380455A1 (Alector, published 2022).
